In US20260242478A1 (published 2026):
Where no end group is shown, it is not given here.

Experiments:
006 PSMA Fab [1] = biological target: T1, 006 PSMA Fab; test: phage ELISA: biotinylated PSMA Fab on neutravidin plate pre-incubated with PSMA antigen (competitor), clonal phage supernatant, anti-M13-HRP detection
T1 construct: also called Anti-PSMA Fab; anti-PSMA Fab
Description: (§1) Clonal phage were harvested as crude supernatants and screened via standard ELISAs. […] Prior to the addition of clonal phage. wells were incubated with blocking buffer and PSMA antigen or blocking buffer alone. Without washing or aspirating, clonal phage supernatants were then added to the wells and incubated for a short time. Wells were then washed followed by detection of bound phage using a horse radish conjugated anti-M13 antibody.

006 PSMA Fab [2] = biological target: T1, 006 PSMA Fab; test: phage ELISA: biotinylated PSMA Fab on neutravidin plate, clonal phage supernatant, anti-M13-HRP detection; blocking buffer alone
Description: as §1

PSMA Fab (006 PSMA Fab) [3] = biological target: T2, PSMA Fab (006 PSMA Fab); test: clonal phage ELISA; biotinylated PSMA Fab on neutravidin plate, wells pre-incubated with PSMA antigen as competitor; anti-M13 HRP detection;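 also: crude clonal phage supernatants added to antigen-treated wells without a wash, incubated briefly, then bound phage read out via horse radish–conjugated anti-M13 antibody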
T2 construct: also called Anti-PSMA Fab; anti-PSMA Fab
Description: as §1

PSMA Fab (006 PSMA Fab) [4] = biological target: T2, PSMA Fab (006 PSMA Fab); test: clonal phage ELISA; biotinylated PSMA Fab on neutravidin plate, blocking buffer alone; anti-M13 HRP detection;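 also: crude clonal phage supernatants added without washing to wells pretreated with blocking buffer with or without PSMA antigen, short incubation, then washed before detecting bound phage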
Description: as §1

006 PSMA Fab [5] = biological target: T3, 006 PSMA Fab (biotinylated (site not given)); test: clonal phage ELISA on plate-bound PSMA Fab, competitor: PSMA antigen pre-incubated in the wells
T3 construct: Biotinylated PSMA Fab captured on neutravidin coated plates for the clonal phage ELISA; also called Anti-PSMA Fab

006 PSMA Fab [6] = biological target: T3, 006 PSMA Fab; test: clonal phage ELISA, biotinylated PSMA Fab on neutravidin plate, anti-M13 HRP detection;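 also: crude clonal phage supernatants added to wells pretreated with blocking buffer either with or without PSMA antigen, bound phage read after washing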
Description: as §1

Row | Binder | phage binding ELISA signal in presence of PSMA antigen (006 PSMA Fab [1]) | phage binding ELISA signal (006 PSMA Fab [2]) | Phage binding ELISA signal, Anti-PSMA Fab in presence of PSMA (006 PSMA Fab [5]) | Phage binding ELISA signal, Anti-PSMA Fab (006 PSMA Fab [6]) | further results
1 | FPHLCIPYWMCVRT (Clonal phage of the peptide-180 library; not shown: pIII filament protein of the bacteriophage to which the peptide is fused) [Phage-2486] | 0.198 | 1.22 |  |  | 
2 | MGNWCTPPWMCTGF (Clonal phage of the peptide-180 library; not shown: pIII filament protein of the bacteriophage to which the peptide is fused) [Phage-2493] | 0.0704 | 1.22 |  |  | 
3 | LTQWCIPQWMCEGS (Row prints L T Q W - I - Q - - - E - S) [Phage-2515] |  |  |  |  | Phage binding ELISA signal, Anti-PSMA Fab in presence of PSMA antigen (PSMA Fab (006 PSMA Fab) [3]): 0.0537; Phage binding ELISA signal, Anti-PSMA Fab (PSMA Fab (006 PSMA Fab) [4]): 1.18
4 | GTNWCKPDWMCVGL (cysteine pairing not given here; also: displayed on phage as fusion to pIII, pIII and linker sequence not given here, not shown: fused to pIII of the bacteriophage) [Phage-2500] |  |  | 0.0855 | 1.21 | 
5 | IPKWCTPSWMCEWV (cysteine pairing not given here; also: displayed on phage as fusion to pIII, pIII and linker sequence not given here, not shown: fused to pIII of the bacteriophage) [Phage-2504] |  |  | 0.0916 | 1.2 | 
6 | SETWCIPAWMCLDG (cysteine pairing not given here; also: displayed on phage as fusion to pIII, pIII and linker sequence not given here, not shown: fused to pIII of the bacteriophage) [Phage-2503] |  |  | 0.0745 | 1.2 | 
7 | WPKLCTPPWMCTVD (cysteine pairing not given here; also: displayed on phage as fusion to pIII, pIII and linker sequence not given here, not shown: fused to pIII of the bacteriophage) [Phage-2497] |  |  | 0.0722 | 1.21 | 
8 | EIKWCTPAWMCAIN (Row prints E I K W - T - A - - - - I N) [Phage-2514] |  |  |  |  | Phage binding ELISA signal, Anti-PSMA Fab in presence of PSMA antigen (PSMA Fab (006 PSMA Fab) [3]): 0.0972; Phage binding ELISA signal, Anti-PSMA Fab (PSMA Fab (006 PSMA Fab) [4]): 1.18
9 | HPSWCTPAWMCQGF (cysteine pairing not given here; also: fused to phage pIII, linker and fusion site not given here, not shown: fused to pIII of the bacteriophage) [Phage-2508] |  |  | 0.0911 | 1.2 | 
10 | EVKWCIPDWMCSVI (cysteine pairing not given here; also: fused to phage pIII, linker and fusion site not given here, not shown: fused to pIII of the bacteriophage) [Phage-2510] |  |  | 0.0782 | 1.19 | 
11 | LVKLCSPEWMCVGM (cysteine pairing not given here; also: fused to phage pIII, linker and fusion site not given here, not shown: fused to pIII of the bacteriophage) [Phage-2511] |  |  | 0.0667 | 1.19 | 
12 | SDKWCIPVWMCEES (cysteine pairing not given here; also: displayed on phage as fusion to pIII, pIII and linker sequence not given here, not shown: fused to pIII of the bacteriophage) [Phage-2501] |  |  | 0.0874 | 1.21 | 
13 | SVKWCTPSWMCEHM (Clonal phage of the peptide-180 library; not shown: pIII filament protein of the bacteriophage to which the peptide is fused) [Phage-2491] | 0.0739 | 1.22 |  |  | 
14 | VERLCKPLWMCQER (cysteine pairing not given here; also: fused to phage pIII, linker and fusion site not given here, not shown: fused to pIII of the bacteriophage) [Phage-2507] |  |  | 0.0748 | 1.2 | 
15 | VSIWCIPPWMCVEK (Clonal phage of the peptide-180 library; not shown: pIII filament protein of the bacteriophage to which the peptide is fused) [Phage-2488] | 0.101 | 1.22 |  |  | 
16 | GEHWCIPAWMCEKM (cysteine pairing not given here; also: displayed on phage as fusion to pIII, pIII and linker sequence not given here, not shown: fused to pIII of the bacteriophage) [Phage-2498] |  |  | 0.0615 | 1.21 | 
17 | ESRLCIPAWMCESQ (Clonal phage of the peptide-180 library; not shown: pIII filament protein of the bacteriophage to which the peptide is fused) [Phage-2496] | 0.0772 | 1.22 |  |  | 

Row | Binder | phage binding ELISA signal in presence of PSMA antigen (006 PSMA Fab [1]) | phage binding ELISA signal (006 PSMA Fab [2]) | Phage binding ELISA signal, Anti-PSMA Fab in presence of PSMA (006 PSMA Fab [5]) | Phage binding ELISA signal, Anti-PSMA Fab (006 PSMA Fab [6]) | further results
18 | LVRWCVPEWMCAGM (cysteine pairing not given here; also: displayed on phage as fusion to pIII, pIII and linker sequence not given here, Clonal phage of the peptide-180 library; not shown: pIII filament protein of the bacteriophage to which the peptide is fused) [Phage-2484] | 0.0945 | 1.22 |  |  | 
19 | WAKWCTPEWMCVVH (Clonal phage of the peptide-180 library; not shown: pIII filament protein of the bacteriophage to which the peptide is fused) [Phage-2489] | 0.15 | 1.22 |  |  | 
20 | VSPLCKPDWMCNGF (Clonal phage of the peptide-180 library; not shown: pIII filament protein of the bacteriophage to which the peptide is fused) [Phage-2485] | 0.0787 | 1.22 |  |  | 
21 | EPKMCTPSWMCRGF (cysteine pairing not given here; also: displayed on phage as fusion to pIII, pIII and linker sequence not given here, not shown: fused to pIII of the bacteriophage) [Phage-2502] |  |  | 0.0691 | 1.2 | 
22 | HFKMCVPPWMCLFD (Clonal phage of the peptide-180 library; not shown: pIII filament protein of the bacteriophage to which the peptide is fused) [Phage-2494] | 0.101 | 1.22 |  |  | 
23 | SLELCRPEWMCVGF (Row prints S L E - - R - E - - - V - -) [Phage-2513] |  |  |  |  | Phage binding ELISA signal, Anti-PSMA Fab in presence of PSMA antigen (PSMA Fab (006 PSMA Fab) [3]): 0.0955; Phage binding ELISA signal, Anti-PSMA Fab (PSMA Fab (006 PSMA Fab) [4]): 1.19
24 | LGKWCIPDWMCSGL (cysteine pairing not given here; also: displayed on phage as fusion to pIII, pIII and linker sequence not given here, not shown: fused to pIII of the bacteriophage) [Phage-2505] |  |  | 0.144 | 1.2 | 
25 | DSRWCIPDWMCELE (Clonal phage of the peptide-180 library; not shown: pIII filament protein of the bacteriophage to which the peptide is fused) [Phage-2483] | 0.0935 | 1.23 |  |  | 
26 | LEKWCIPLWMCQTA (Clonal phage of the peptide-180 library; not shown: pIII filament protein of the bacteriophage to which the peptide is fused) [Phage-2495] | 0.0777 | 1.22 |  |  | 
27 | LGKMCIPLWMCDGL (Row prints L G K M - I - L - - - D - L) [Phage-2512] |  |  |  |  | Phage binding ELISA signal, Anti-PSMA Fab in presence of PSMA antigen (PSMA Fab (006 PSMA Fab) [3]): 0.0573; Phage binding ELISA signal, Anti-PSMA Fab (PSMA Fab (006 PSMA Fab) [4]): 1.19
28 | GEKWCIPEWMCQDV (cysteine pairing not given here; also: displayed on phage as fusion to pIII, pIII and linker sequence not given here, not shown: fused to pIII of the bacteriophage) [Phage-2499] |  |  | 0.0722 | 1.21 | 
29 | TYKMCIPAWKCAVS (cysteine pairing not given here; also: fused to phage pIII, linker and fusion site not given here, not shown: fused to pIII of the bacteriophage) [Phage-2509] |  |  | 0.0792 | 1.19 | 
30 | DYKWCTPIWMCAGD (cysteine pairing not given here; also: displayed on phage as fusion to pIII, pIII and linker sequence not given here, Clonal phage of the peptide-180 library; not shown: pIII filament protein of the bacteriophage to which the peptide is fused) [Phage-2487] | 0.0707 | 1.22 |  |  | 
31 | IEKMCIPAWMCTDK (Clonal phage of the peptide-180 library; not shown: pIII filament protein of the bacteriophage to which the peptide is fused) [Phage-2492] | 0.0698 | 1.22 |  |  | 
32 | DFKWCTPPWMCDVF (Clonal phage of the peptide-180 library; not shown: pIII filament protein of the bacteriophage to which the peptide is fused) [Phage-2490] | 0.0763 | 1.22 |  |  | 
33 | VQMLCIPAWMCGME (cysteine pairing not given here; also: displayed on phage as fusion to pIII, pIII and linker sequence not given here, not shown: fused to pIII of the bacteriophage) [Phage-2506] |  |  | 0.107 | 1.2 | 
